Measured values from the supplement of paper PMC10567573.

B1: GNAI1 (parent)
chain: WIHCFEGVTAIIFCVALSDYDLVL
B2: EPB41L3 (parent)
chain: SMQCKVILLDGSEYTCDVEKRSRG

Variants of: B1
Assay: protein stability index of a GFP-peptide fusion (GPS, HEK-293T) (PSI 1-6); higher = more stable
Conditions: c terminus: a fixed tail appended
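Further: lentivirally expressed fusions sorted by FACS into six bins by GFP to DsRed ratio, PSI derived from sequencing read proportions per bin multiplied by bin number.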

Variant | protein stability index
E6K | 1.26
E6R | 3.24
E6A | 2.75
E6N | 3.63
E6I | 3.12
E6Y | 2.48
E6D | 2.74
E6V | 2.97
E6Q | 1.76
E6T | 2.2
E6C | 1.95
E6G | 2.32
E6M | 2.6
E6F | 1.87
E6L | 4.47
I2Q | 3.22
I2Y | 3.56
I2E | 3.25
I2L | 1.83
I2D | 2.21
I2F | 1.63
I2T | 2.12
I2S | 2.82
I2H | 2.9
I2A | 2.9
I2G | 1.7
I2R | 2.34

Variant | protein stability index
W1V | 3.35
W1Y | 3.22
W1H | 3.09
W1K | 3.4
W1E | 2.82
W1P | 3.51
W1D | 3.44
W1I | 4.21
W1F | 2.29
W1G | 2.14
W1T | 2.32
W1A | 3.11
W1M | 2.91
W1N | 2.99
W1L | 3.13
W1Q | 1.72
W1S | 1.5
H3K | 3.35
H3C | 1.69
H3T | 3.21
H3D | 3.95
H3N | 3.58
H3F | 1.75
H3V | 2.98
H3I | 2.8
H3Y | 3.39
H3E | 3.35

Variant | protein stability index
C4K | 3.1
C4S | 3.29
C4F | 2.8
C4Q | 3.17
C4M | 2.25
C4H | 2.22
C4R | 2.97
C4G | 3.37
C4E | 2.83
C4T | 2.39
C4N | 3.76
C4Y | 2.43
C4W | 4.22
C4P | 2.69
V8M | 2.09
V8I | 3.14
V8Q | 3.32
V8N | 2.3
V8A | 2.56
V8P | 2.99
V8L | 2.78
V8C | 3.33
V8D | 2.79
V8K | 1.95
V8F | 3.11
V8G | 1.82
G7P | 5.18

Variant | protein stability index
G7Q | 2.28
G7E | 3.19
G7M | 1.99
G7D | 3.39
G7R | 2.02
G7I | 4.42
G7S | 2.44
G7H | 2.92
G7C | 4.35
G7Y | 2.62
G7T | 2.51
G7L | 2.54
F5K | 2.11
F5P | 3.42
F5S | 2.75
F5M | 2.91
F5D | 2.6
F5T | 2.87
F5A | 3.47
F5N | 2.79
F5Q | 2.79
F5H | 3.07
F5I | 3.65
F5C | 1.78

Variants of: B2
Assay: as above
Conditions: c terminus: a fixed tail appended

Variant | protein stability index
K5F | 1.58
K5Q | 3.06
K5C | 1.77
K5E | 3.48
L9S | 2.85
L9Q | 3.94
L9K | 3.81
G24P | 2.47
S22I | 2.16
S22T | 3.63
S22H | 2.89
C16G | 3.19
C16W | 2.01
E19H | 1.73
E19N | 2.29
E19K | 2.34
E19P | 2.11
R23Q | 2.87
R23N | 2.52
R23S | 3.17
R23V | 2.88

Variant | protein stability index
M2P | 3.42
M2Y | 1.5
M2C | 2.08
R21C | 2.86
R21D | 3.49
C4A | 3.93
C4M | 2.6
C4Q | 4.28
E13G | 2.79
E13N | 1.75
E13L | 2.7
Y14P | 3.66
S12V | 2.05
S12Q | 2.92
S12C | 2.14
S1W | 2
G11E | 2.03
G11M | 1.73
G11Q | 2.87
V6Y | 2.95
V6E | 4.55

Variant | protein stability index
V6S | 4.07
D17I | 1.89
L8A | 3.31
V18E | 3.18
V18Q | 3.83
V18G | 2.96
V18F | 2.1
K20H | 2.87
K20E | 3.26
K20S | 2.52
T15H | 1.98
T15I | 2.67
D10F | 2.14
D10G | 2.14
D10H | 1.5
D10N | 1.89
Q3P | 3.63
Q3F | 3.2
Q3M | 3.35
Q3G | 2.38
